The data set “NMR relaxation” concerns the molecule itself. Briefly: NMR relaxation.
Data set [1] concerns the molecule itself. Nature of the data set: cell-based or functional assay.

B1: sperm lysin from red abalone (Haliotis rufescens), wild type (natural protein)
chain: RSWHYVEPKFLNKAFEVALKVQIIAGFDRGLVKWLRVHGRTLSTVQKKALYFVNRRYMQTHWANYMLWINKKIDALGRTPVVGDYTRLGAEIGRRIDMAYFYDFLKDKNMIPKYLPYMEEINRMRPADVPVKYMGK
Consider B1, for which the binding result in “NMR relaxation” was “binds”.

B2: F104A lysin (monomeric mutant of red abalone sperm lysin) (natural protein)
chain: RSWHYVEPKFLNKAFEVALKVQIIAGFDRGLVKWLRVHGRTLSTVQKKALYFVNRRYMQTHWANYMLWINKKIDALGRTPVVGDYTRLGAEIGRRIDMAYFYDALKDKNMIPKYLPYMEEINRMRPADVPVKYMGK
On to B2, for which the “in vitro VE dissolution (turbidity at 640 nm), F104A lysin against WT lysin” value in data set [1] was no less than 4 fold.
